# Experimental data reported in patent US20260035450.
# T1: recombinant human ANGPTL3 (rhANGPTL3) (SEQ ID NO:1)
# T1 chain: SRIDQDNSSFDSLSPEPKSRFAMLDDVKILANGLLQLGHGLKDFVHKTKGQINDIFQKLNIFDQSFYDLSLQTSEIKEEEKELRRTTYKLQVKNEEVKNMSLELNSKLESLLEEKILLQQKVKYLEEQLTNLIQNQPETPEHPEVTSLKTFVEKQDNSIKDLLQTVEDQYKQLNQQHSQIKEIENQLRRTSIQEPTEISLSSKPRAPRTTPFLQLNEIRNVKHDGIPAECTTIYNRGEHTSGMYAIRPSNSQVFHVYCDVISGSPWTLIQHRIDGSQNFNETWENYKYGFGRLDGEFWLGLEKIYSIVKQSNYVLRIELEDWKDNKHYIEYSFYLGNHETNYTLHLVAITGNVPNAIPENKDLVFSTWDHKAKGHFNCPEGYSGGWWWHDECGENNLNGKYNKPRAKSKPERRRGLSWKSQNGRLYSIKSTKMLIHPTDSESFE
# Target: T1, recombinant human ANGPTL3 (rhANGPTL3) …
protein,measurement,value
bovine LPL (protein) DRITGGKDFRDIESKFALRTPEDTAEDTCHLIPGVTESVANCHFNHSSKTFVVIHGWTVTGMYESWVPKLVAALYKREPDSNVIVVDWLSRAQQHYPVSAGYTKLVGQDVAKFMNWMADEFNYPLGNVHLLGYSLGAHAAGIAGSLTNKKVNRITGLDPAGPNFEYAEAPSRLSPDDADFVDVLHTFTRGSPGRSIGIQKPVGHVDIYPNGGTFQPGCNIGEALRVIAERGLGDVDQLVKCSHERSVHLFIDSLLNEENPSKAYRCNSKEAFEKGLCLSCRKNRCNNMGYEINKVRAKRSSKMYLKTRSQMPYKVFHYQVKIHFSGTESNTYTNQAFEISLYGTVAESENIPFTLPEVSTNKTYSFLLYTEVDIGELLMLKLKWISDSYFSWSNWWSSPGFDIGKIRVKAGETQKKVIFCSREKMSYLQKGKSPVIFVKCHDKSLNRKSG,"in vitro enzymatic activity of lipoprotein lipase (LPL), EnzChek Lipase substrate",The activity of bovine LPL is inhibited by addition of recombinant hANGPTL3 (rhANGPTL3)
